Measurements as given in patent US20210324035A1 (University of California, published 2021).

How the values were obtained:
[1] = biological target: T1, NY-ESO-1 (CTAG1B) peptide on HLA-A*02:01 (human); experiment: value cited from Robbins et al. 2008 (ref 37); not measured in this filing
T1 peptide: SLLMWITQC

[2] = biological target: T2, HLA-A*02:01/NY-ESO-1 157-165 (…) (Homo sapiens; human); experiment: flow cytometry, dextramer MFI on CD8+ Jurkat against Jurkat cells
[3] = biological target: T2, HLA-A*02:01/NY-ESO-1 157-165 (…); experiment: flow cytometry, A*02:01/NY157-165 dextramer staining of TCR-transduced human T cells from the blood of NSG mice
[4] = biological target: T2, HLA-A*02:01/NY-ESO-1 157-165 (…); experiment: flow cytometry, dextramer MFI on TCR-transduced Jurkat cells
[5] = biological target: T3, NY-ESO-1 (CTAG1B) peptide on HLA-B*07:02 (human); experiment: cytokine release
T3 peptide: APRGPHGGAASGL

[6] = biological target: T1, NY-ESO-1 (CTAG1B) peptide on HLA-A*02:01; experiment: multimer staining
[7] = biological target: HLA-B*07:02/NY-ESO-1 60-72 (Homo sapiens; human); experiment: cell-based or functional assay
[8] = biological target: T1, NY-ESO-1 (CTAG1B) peptide on HLA-A*02:01; experiment: cytokine release
[9] = biological target: T3, NY-ESO-1 (CTAG1B) peptide on HLA-B*07:02; experiment: multimer staining
[10] = biological target: T2, HLA-A*02:01/NY-ESO-1 157-165 (…); experiment: cell-based or functional assay
[11] = biological target: HLA-B*18:01/NY-ESO-1 88-96 (Homo sapiens; human); experiment: cell-based or functional assay
[12] = biological target: T4, NY-ESO-1 (CTAG1B) peptide on HLA-B*18:01 (human); experiment: multimer staining
T4 peptide: LEFYLAMPF

1G4 TCR
Kd [1]: 9.3 µM

1G4 TCR, murinized (murine TCR constant domains)
fold increase of dextramer binding in the presence of CD8 [2]: 3.8 fold | percent of transduced T cells dextramer+ [3]: 90% | fold increase of the intensity of dextramer binding, muTCR over parental huTCR [4]: 1.4 fold

B1: 3A1 TCR, murinized (murine TCR constant domains) (TCR, V domains shown)
V domain 1: GQQLNQSPQSMFIQEGEDVSMNCTSSSIFNTWLWYKQDPGEGPVLLIALYKAGELTSNGRLTAQFGITRKDSFLNISASIPSDVGIYFCAGFLDSNYQLIWGAGTKLIIKP
V domain 2: EAQVTQNPRYLITVTGKKLTVTCSQNMNHEYMSWYRQDPGLGLRQIYYSMNVEVTDKGDVPEGYKVSRKEKRNFPLILESPSPNQTSLYFCASASGYRTDTQYFGPGTRLTVLE
notes: Full-length TCR on transduced Jurkat cells or primary human T cells; Human variable regions with mouse constant regions; also called 3A1 muTCR
fold increase of dextramer binding in the presence of CD8 [2]: 1.9 fold

B2: 3A1 TCR (TCR, V domains shown)
Valpha: GQQLNQSPQSMFIQEGEDVSMNCTSSSIFNTWLWYKQDPGEGPVLLIALYKAGELTSNGRLTAQFGITRKDSFLNISASIPSDVGIYFCAGFLDSNYQLIWGAGTKLIIKP
Vbeta: EAQVTQNPRYLITVTGKKLTVTCSQNMNHEYMSWYRQDPGLGLRQIYYSMNVEVTDKGDVPEGYKVSRKEKRNFPLILESPSPNQTSLYFCASASGYRTDTQYFGPGTRLTVL
binding result [5]: no recognition | binding result [6]: recognises

B3: 1E4 TCR, murinized (murine TCR constant domains) (TCR, V domains shown)
V domain 1: KQEVTQIPAALSVPEGENLVLNCSFTDSAIYNLQWFRQDPGKGLTSLLLIQSSQREQTSGRLNASLDKSSGRSTLYIAASQPGDSATYLCAVSTAYSGGGADGLTFGKGTHLIIQP
V domain 2: DTGVSQNPRHKITKRGQNVTFRCDPISEHNRLYWYRQTLGQGPEFLTYFQNEAQLEKSRLLSDRFSAERPKGSFSTLEIQRTEQGDSAMYLCASSPPTVRVYGYTFGSGTRLTVVE
IL-2 production of TCR-transduced Jurkat cells co-incubated with cognate target cells; fold increase of murinized over fully human TCR [7]: 1.6 fold

B4: 1E4 TCR (TCR, V domains shown)
Valpha: KQEVTQIPAALSVPEGENLVLNCSFTDSAIYNLQWFRQDPGKGLTSLLLIQSSQREQTSGRLNASLDKSSGRSTLYIAASQPGDSATYLCAVSTAYSGGGADGLTFGKGTHLIIQP
Vbeta: DTGVSQNPRHKITKRGQNVTFRCDPISEHNRLYWYRQTLGQGPEFLTYFQNEAQLEKSRLLSDRFSAERPKGSFSTLEIQRTEQGDSAMYLCASSPPTVRVYGYTFGSGTRLTVV
binding result [8]: no recognition | binding result [9]: recognises

B5: 5G6 TCR (TCR, V domains shown)
Valpha: DAKTTQPNSMESNEEEPVHLPCNHSTISGTDYIHWYRQLPSQGPEYVIHGLTSNVNNRMASLAIAEDRKSSTLILHRATLRDAAVYYCILRTSGAGSYQLTFGKGTKLSVIP
Vbeta: SAVISQKPSRDICQRGTSLTIQCQVDSQVTMMFWYRQQPGQSLTLIATANQGSEATYESGFVIDKFPISRPNLTFSTLTVSNMSPEDSSIYLCSAGGAGASDTQYFGPGTRLTVL
binding result [6]: recognises

B6: 9D2 TCR, murinized (murine TCR constant domains) (TCR, V domains shown)
V domain 1: QKEVEQNSGPLSVPEGAIASLNCTYSDRGSQSFFWYRQYSGKSPELIMFIYSNGDKEDGRFTAQLNKASQYVSLLIRDSQPSDSATYLCAVDDKIIFGKGTRLHILP
V domain 2: DAGVIQSPRHEVTEMGQEVTLRCKPISGHDYLFWYRQTMMRGLELLIYFNNNVPIDDSGMPEDRFSAKMPNASFSTLKIQPSEPRDSAVYFCASSLGQPSTDTQYFGPGTRLTVLE
IFN-γ secretion of TCR-transduced primary T cells co-incubated with peptide-pulsed A2+ K562 cells; functional sensitivity relative to 4A2 [10]: 10 fold

B7: 2B8 TCR, murinized (murine TCR constant domains) (TCR, V domains shown)
V domain 1: GQQVMQIPQYQHVQEGEDFTTYCNSSTTLSNIQWYKQRPGGHPVFLIQLVKSGEVKKQKRLTFQFGEAKKNSSLHITATQTTDVGTYFCADPNFGNEKLTFGTGTRLTIIP
V domain 2: EAQVTQNPRYLITVTGKKLTVTCSQNMNHEYMSWYRQDPGLGLRQIYYSMNVEVTDKGDVPEGYKVSRKEKRNFPLILESPSPNQTSLYFCASSLNPFATNEKLFFGSGTQLSVLE
IL-2 production of TCR-transduced Jurkat cells co-incubated with cognate target cells; fold increase of murinized over fully human TCR [11]: 18.6 fold

B8: 2B8 TCR (TCR, V domains shown)
Valpha: GQQVMQIPQYQHVQEGEDFTTYCNSSTTLSNIQWYKQRPGGHPVFLIQLVKSGEVKKQKRLTFQFGEAKKNSSLHITATQTTDVGTYFCADPNFGNEKLTFGTGTRLTIIP
Vbeta: EAQVTQNPRYLITVTGKKLTVTCSQNMNHEYMSWYRQDPGLGLRQIYYSMNVEVTDKGDVPEGYKVSRKEKRNFPLILESPSPNQTSLYFCASSLNPFATNEKLFFGSGTQLSVL
binding result [12]: recognises
